{"source": "paper PMC4174873", "biological_target": "CTBMPR (not stated | Human immunodeficiency virus 1 (HIV-1)) (UniProt P01556)", "assay": "SEC"}
{"substance": "CTBMPR (from UniProt P01556 22-124)", "values": [{"measurement": "stoichiometry N", "value": 5}]}
